The sequences below were run on Escherichia coli TOP10 (assay: shrunken log2 fold change of peptide-encoding DNA abundance (4.5 h post-induction vs induction); higher = less antimicrobial activity (less host growth inhibition)). Settings: time post-induction: 4.5 h; library: site-saturation at positions 5, 18, 19, 20.
For RRIRCRPPRLPRPRPRPGHIPRP, the “shrunken log2 fold change” value was -0.458. With RRIRQRPPRLPRPRPRPICQPRP the “shrunken log2 fold change” value was -0.153. For RRIRPRPPRLPRPRPRPPQNPRP, the “shrunken log2 fold change” value was 0.361. RRIRTRPPRLPRPRPRPKSQPRP was tested, and the “shrunken log2 fold change” value was -0.285. For RRIRMRPPRLPRPRPRPRDHPRP, the “shrunken log2 fold change” value was 0.324. In the case of RRIRTRPPRLPRPRPRPYCNPRP, the “shrunken log2 fold change” value is reported as -1.32. RRIRGRPPRLPRPRPRPFTWPRP was tested, and the “shrunken log2 fold change” value was 0.725. With RRIRARPPRLPRPRPRPNTHPRP the “shrunken log2 fold change” value was -0.309. For RRIRWRPPRLPRPRPRPCHAPRP, the “shrunken log2 fold change” value was -0.253. For RRIRPRPPRLPRPRPRPEHFPRP, the “shrunken log2 fold change” value was 0.134. RRIRIRPPRLPRPRPRPTCEPRP was tested, and the “shrunken log2 fold change” value was -0.132. RRIRLRPPRLPRPRPRPFMHPRP was tested, and the “shrunken log2 fold change” value was -0.326. With RRIRRRPPRLPRPRPRPYMRPRP the “shrunken log2 fold change” value was 0.044. RRIRRRPPRLPRPRPRPNKMPRP was tested, and the “shrunken log2 fold change” value was -0.0549. In the case of RRIRIRPPRLPRPRPRPCLQPRP, the “shrunken log2 fold change” value is reported as -0.0932. RRIRDRPPRLPRPRPRPHCFPRP was tested, and the “shrunken log2 fold change” value was 0.00117. For RRIRMRPPRLPRPRPRPSMVPRP, the “shrunken log2 fold change” value was 0.0557. For RRIRPRPPRLPRPRPRPCMAPRP, the “shrunken log2 fold change” value was -0.151. RRIRHRPPRLPRPRPRPKNSPRP was tested, and the “shrunken log2 fold change” value was -0.487. RRIRPRPPRLPRPRPRPSCVPRP was tested, and the “shrunken log2 fold change” value was -0.368. In the case of RRIRPRPPRLPRPRPRPDPSPRP, the “shrunken log2 fold change” value is reported as 0.265. For RRIRNRPPRLPRPRPRPVTEPRP, the “shrunken log2 fold change” value was -0.0551. With RRIRHRPPRLPRPRPRPISPPRP the “shrunken log2 fold change” value was -0.256. With RRIRYRPPRLPRPRPRPHGHPRP the “shrunken log2 fold change” value was -0.358. RRIRDRPPRLPRPRPRPFKFPRP was tested, and the “shrunken log2 fold change” value was -0.122. In the case of RRIRHRPPRLPRPRPRPSQLPRP, the “shrunken log2 fold change” value is reported as -0.00148. With RRIRVRPPRLPRPRPRPCAVPRP the “shrunken log2 fold change” value was 0.218. With RRIRLRPPRLPRPRPRPFRRPRP the “shrunken log2 fold change” value was -0.0943. With RRIRTRPPRLPRPRPRPECPPRP the “shrunken log2 fold change” value was 0.151. For RRIRNRPPRLPRPRPRPFIQPRP, the “shrunken log2 fold change” value was -0.737. RRIRRRPPRLPRPRPRPRGCPRP was tested, and the “shrunken log2 fold change” value was 0.984. RRIRLRPPRLPRPRPRPKYCPRP was tested, and the “shrunken log2 fold change” value was 0.0654. For RRIRKRPPRLPRPRPRPATGPRP, the “shrunken log2 fold change” value was 0.145. In the case of RRIRRRPPRLPRPRPRPGKGPRP, the “shrunken log2 fold change” value is reported as 0.609. In the case of RRIRIRPPRLPRPRPRPIDLPRP, the “shrunken log2 fold change” value is reported as -0.179. In the case of RRIRLRPPRLPRPRPRPECMPRP, the “shrunken log2 fold change” value is reported as 0.442. In the case of RRIRVRPPRLPRPRPRPYCCPRP, the “shrunken log2 fold change” value is reported as -0.252. RRIRSRPPRLPRPRPRPSKQPRP was tested, and the “shrunken log2 fold change” value was -0.225. For RRIRMRPPRLPRPRPRPPHTPRP, the “shrunken log2 fold change” value was 0.824. With RRIRNRPPRLPRPRPRPGWSPRP the “shrunken log2 fold change” value was 0.2. With RRIRPRPPRLPRPRPRPPVGPRP the “shrunken log2 fold change” value was 0.557. RRIRPRPPRLPRPRPRPVYFPRP was tested, and the “shrunken log2 fold change” value was -0.671. In the case of RRIRWRPPRLPRPRPRPCLYPRP, the “shrunken log2 fold change” value is reported as -0.0689. For RRIRKRPPRLPRPRPRPTIIPRP, the “shrunken log2 fold change” value was -0.0974. For RRIRLRPPRLPRPRPRPFLGPRP, the “shrunken log2 fold change” value was -0.0654. With RRIRVRPPRLPRPRPRPLKAPRP the “shrunken log2 fold change” value was 0.157. For RRIRTRPPRLPRPRPRPMRSPRP, the “shrunken log2 fold change” value was 0.232. In the case of RRIRERPPRLPRPRPRPNMSPRP, the “shrunken log2 fold change” value is reported as -0.179. With RRIRHRPPRLPRPRPRPDWEPRP the “shrunken log2 fold change” value was -0.00783. With RRIRKRPPRLPRPRPRPNWPPRP the “shrunken log2 fold change” value was 0.19. In the case of RRIRWRPPRLPRPRPRPQRSPRP, the “shrunken log2 fold change” value is reported as 0.172. RRIRGRPPRLPRPRPRPGFVPRP was tested, and the “shrunken log2 fold change” value was 0.768. For RRIRVRPPRLPRPRPRPKRKPRP, the “shrunken log2 fold change” value was 0.376. In the case of RRIRMRPPRLPRPRPRPYLSPRP, the “shrunken log2 fold change” value is reported as -0.0214. With RRIRIRPPRLPRPRPRPWSHPRP the “shrunken log2 fold change” value was -0.416. For RRIRHRPPRLPRPRPRPFYDPRP, the “shrunken log2 fold change” value was -0.837. With RRIRWRPPRLPRPRPRPQSHPRP the “shrunken log2 fold change” value was 0.105. With RRIRMRPPRLPRPRPRPNECPRP the “shrunken log2 fold change” value was 0.175. RRIRCRPPRLPRPRPRPIPWPRP was tested, and the “shrunken log2 fold change” value was -0.146. In the case of RRIRVRPPRLPRPRPRPCQPPRP, the “shrunken log2 fold change” value is reported as -0.236. RRIRARPPRLPRPRPRPCFIPRP was tested, and the “shrunken log2 fold change” value was -0.333. RRIRRRPPRLPRPRPRPKAGPRP was tested, and the “shrunken log2 fold change” value was 0.319. RRIRTRPPRLPRPRPRPSRIPRP was tested, and the “shrunken log2 fold change” value was -0.179.
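Also: peptides expressed intracellularly from a pBAD plasmid library in pooled LB shake-flask culture, induced with 0.3% L-arabinose, DNA abundance read by NGS, three biological replicates, DESeq2 with apeglm shrinkage.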
